Results: patent US20180250395A1 (Janssen / Centocor, published 2018)
Where two headings read alike, the source gives them in different places.

B1: C47B91 (antibody, human IgG2, V domains shown)
VH: EVQLVQSGAEVKKPGESLKISCKGSGYSFTSYWIGWVRQMPGKGLEWMGIIYPGDSDTRYSPSFQGQVTISADKSISTAYLQWSSLKASDTAMYYCARVGRFASHQLDYWGQGTLVTVSS
VL: EIVLTQSPATLSLSPGERATLSCRASQSVNKALAWYQQKPGQAPRLLIYGASNRATGIPARFSGSGSGTDFTLTISSLEPEDFAVYYCQQGKGWPFTFGQGTKVEIK
notes: phage-derived; also called C47M91; parent C47B91
B2: C47B116 (antibody, human IgG2, V domains shown)
VH: EVQLQQSGPELVKPGASVKISCKASGYTFTDYNMHWVKQSHGKSLEWIGDIYPYNGGTGYNQKFKSKATLTVDNSSSTAYMELRSLTSEDSAVYYCARGGWHAMDSWGQGTSVTVSS
VL: DVVMTQTPLSLPVSLGDQASISCRSRQSIVHTNRYTYLAWYLQKPGQSPKLLIYKVSNRFSGVPDRFSGSGSGTDFTLKISRVEAEDLGVYYCFQGSHVPYTFGGGTKLEIK
notes: hybridoma-derived, chimeric human IgG2 Fc-silent/human kappa; also called parent hybridoma mAb C47B116
B3: B6H12.2 (human IgG2sigma) (antibody, V domains shown)
VH: EVKLVESGGDLVKPGGSLKLSCAASGFTFSGYGMSWVRQTPDKRLEWVATITSGGTYTYYPDSVKGRFTISRDNAKNTLYLQIDSLKSEDTAIYFCARSLAGNAMDYWGQGTSVTVSS
VL: DIVMTQSPATLSVTPGDRVSLSCRASQTISDYLHWYQQKSHESPRLLIKFASQSISGIPSRFSGSGSGSDFTLSINSVEPEDVGVYYCQNGHGFPRTFGGGTKLEIK
notes: also called IgG2 Fc-silent B6H12.2; positive control anti-CD47 mAb
B4: C47B167 (antibody, V domains shown)
VH: EVQLVQSGAEVKKPGESLKISCKGSGYTFTSYWMQWVRQMPGKGLEWMGEINPSNGRTDYNEKFRGQVTISADKSISTAYLQWSSLKASDTAMYYCARQGGSGYGNSYGFFDVWGQGTTVTVSS
VL: EIVLTQSPATLSLSPGERATLSCRASSSVSYMHWYQQKPGQAPRLLIYDTSRLASGIPARFSGSGSGTDFTLTISSLEPEDFAVYYCQQWRSNPYTFGGGTKVEIK
notes: isotype not restated

Columns and labels:
[1] = biological target: T1, Cyno CD47 ECD protein, His-tagged, monomer (cyno); test: ProteOn SPR; cyno KD / human KD
T1 construct: extracellular domain; also called cynomolgus CD47
Procedure: (§1) Kinetic binding affinities to human CD47 and Cyno CD47 ECD proteins were determined by a Protein Interaction Array System (ProteOn). Briefly, mAbs were captured on the sensor chip via anti-IgG-Fc to reach surface density of 200-350 RU. […] The dissociation was monitored for 30 min. Data were fitted to 1:1 binding model.

[2] = biological target: T1, Cyno CD47 ECD protein, His-tagged, …; test: ProteOn SPR; cyno KD / human KD; remark: listed apart in the source
[3] = biological target: T2, human CD47 on Jurkat cells (human, UniProt Q08722 19-323); test: MSD on Jurkat cells; blocks SIRP alpha-Fc binding
T2 construct: Endogenous CD47 of the cell lines; also called CD47-expressing Jurkat cells; CD47 on HL60 cells
Source text: The ECL signal was plotted as a function of antibody concentrations, and EC₅₀ values were obtained from fitting the dose-response curves using non-linear regression model in GraphPad Prism.

[4] = biological target: T3, recombinant human CD47 extracellular domain (ECD), His-tagged, monomer (human, UniProt Q08722 19-141); test: ProteOn SPR; mAb captured, ECD monomer as analyte
T3 construct: C-terminal 6xHis tag; monomeric fraction from Superdex 200; also called human CD47 ECD; CD47-ECD monomer
Procedure: as §1

[5] = biological target: T1, Cyno CD47 ECD protein, His-tagged, …; test: ProteOn SPR; mAb captured, ECD monomer as analyte
Procedure: as §1

[6] = biological target: T3, recombinant human CD47 extracellular …; test: ProteOn SPR; mAb captured, ECD monomer as analyte; remark: listed apart in the source
[7] = biological target: T1, Cyno CD47 ECD protein, His-tagged, …; test: ProteOn SPR; mAb captured, ECD monomer as analyte; remark: listed apart in the source
[8] = biological target: T4, recombinant human CD47 extracellular domain (ECD), His-tagged, dimer (human, UniProt Q08722 19-141); test: MSD; CD47-ECD dimer binding to captured SIRP alpha-Fc, mAb 10 µg/ml
T4 construct: Dimeric fraction of the same His-tagged ECD; also called His-tagged CD47-ECD dimer protein

[9] = biological target: T1, Cyno CD47 ECD protein, His-tagged, …; test: ProteOn SPR; cyno KD / human KD; remark: listed apart in the source
[10] = biological target: T2, human CD47 on Jurkat cells; test: MSD on Jurkat cells; blocks SIRP alpha-Fc binding; remark: listed apart in the source
[11] = biological target: T3, recombinant human CD47 extracellular …; test: ProteOn SPR; mAb captured, ECD monomer as analyte; remark: listed apart in the source
[12] = biological target: T1, Cyno CD47 ECD protein, His-tagged, …; test: ProteOn SPR; mAb captured, ECD monomer as analyte; remark: listed apart in the source
[13] = biological target: T3, recombinant human CD47 extracellular …; test: method not restated

Binder	KD Ratio Cyno/Human [1]	KD Ratio Cyno/Human [2]	EC50 [3] [µg/mL]	Kd [4] [nM]	Kd [5] [nM]	Kd [6] [nM]	Kd [7] [nM]	% SIRP alpha Inhibition [8] [%]	KD Ratio Cyno/Human [9]	EC50 [10] [µg/mL]	Kd [11] [nM]	Kd [12] [nM]	Kd [13] [nM]
B1	1.6	3	0.06	15.6	24.5	5.95	17.8	82.6	–	–	–	–	–
B2	0.7	–	0.1	1.41	0.967	–	–	–	0.9	0.12	1.02	0.95	–
B3	1.1	–	0.21	0.539	0.572	–	–	–	–	–	–	–	–
B4	–	–	–	–	–	–	–	–	–	–	–	–	5.2
